Measured values: US20190185550A1 (HEFEI LIFEON PHARMACEUTICAL, published 2019)

Experiments:
[1] = target: T1, recombinant ED-B domain of human fibronectin with six histidine tags at the carboxyl terminal (human, UniProt P02751 1266-1356); experiment: ELISA, Scatchard assay method (Beatty), coated ED-B
T1 construct: domain: ED-B; also called ED-B antigen; independent ED-B domain
Description: The Scatchard assay method (Beatty, Beatty et al. 1987) is used for the affinity determination. 0.1 μg/μl ED-B antigen is diluted according to four concentration gradients of 1:1, 1:2, 1:4 and 1:8, enveloped in the ELISA plate, stored overnight at 4° C., and then blocked with 4% skimmed milk. The single-chain antibody diluted according to the concentration gradient of 1:3 is added with the original concentration of the antibody being 10 μg/ml. The antibody reacts under a room temperature for 1 hr, then reacts for 1 hr under the addition of a horseradish peroxidase-labeled rabbit-anti-human IgG antibody, and is stained by adding tetramethyl benzidine (TMB). When an appropriate color depth is reached, the staining is terminated by using 2M H₂SO₄, and the OD450 optical absorption value is determined.

[2] = target: FN(789), recombinant fibronectin fragment of domains 7, 8 and 9 without the ED-B domain, with 6xHis tags (human, UniProt P02751-1 1173-1446, limits assumed); experiment: ELISA on coated antigen, antibody B5 as primary antibody, HRP-labeled rabbit anti-human IgG as secondary antibody, OD450
Description: The plasmid is expressed in E. coli and then purified through a Ni-chelating column. The aforementioned three proteins are used as antigens and are blocked with milk. Then an ELISA detection test is conducted by using the antibody B5 as a primary antibody and using the horseradish peroxidase-labeled rabbit-anti-human IgG antibody as the secondary antibody, with the test results being shown in FIG. 2.

[3] = target: T1, recombinant ED-B domain of human …; experiment: SPR, BIAcore3000, ED-B amine-coupled on the chip

T1 sequence (P02751 other isoform, or with tags, fused parts or gaps limits assumed): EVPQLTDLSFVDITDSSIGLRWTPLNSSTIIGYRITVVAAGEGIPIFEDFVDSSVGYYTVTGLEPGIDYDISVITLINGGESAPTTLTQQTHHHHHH
Chain of FN(789), recombinant fibronectin fragment of domains 7, 8 and 9 without the ED-B domain, with 6xHis tags (P02751 other isoform, or with tags, fused parts or gaps limits assumed): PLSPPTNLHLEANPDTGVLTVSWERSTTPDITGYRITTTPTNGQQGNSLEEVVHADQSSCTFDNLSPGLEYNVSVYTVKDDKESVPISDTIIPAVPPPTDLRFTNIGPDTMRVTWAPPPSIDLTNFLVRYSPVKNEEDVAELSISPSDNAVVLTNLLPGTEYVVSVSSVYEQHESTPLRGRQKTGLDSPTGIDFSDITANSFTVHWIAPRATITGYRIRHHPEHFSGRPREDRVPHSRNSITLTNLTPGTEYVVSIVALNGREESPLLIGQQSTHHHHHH

| Binder | Kd [1] | binding result [2] | Kd [3] |
| --- | --- | --- | --- |
| antibody B5 (humanized single-chain antibody against the ED-B domain, expressed as a fusion with the Fc of human IgG1) (Fc fusion, also called B5-IgG1Fc; single-chain antibody B5; not shown: Fc fragment of the constant region of human IgG1, fused in frame after the scFv (pCI-neo vector); limits and junction no) scFv: EVQLLESGGGLVQPGGSLRLSCAASGFTFSSYAMSWVRQAPGKGLEWVSRISPSGSSTYYADSVKGRFTISRDNSKNTLYLQMNSLRAEDTAVYYCARHTAPLFDYWGQGTLVTVSSGGGGSGGGGSGGGGSSEIVLTQSPGTLSLSPGERATLSCRASQSVSSSYLAWYQQKPGQAPRLLIYKASNLATGIPDRFSGSGSGTDFTLTISRLEPEDFAVYYCQQGRHTPPTFGQGTKVEIK | 1.8 nM | no binding |  |
| antibody L19 (antibody, V domains shown) VH: EVQLLESGGGLVQPGGSLRLSCAASGFTFSSFSMSWVRQAPGKGLEWVSSISGSSGTTYYADSVKGRFTISRDNSKNTLYLQMNSLRAEDTAVYYCAKPFPYFDYWGQGTLVTVSS VL: EIVLTQSPGTLSLSPGERATLSCRASQSVSSSYLAWYQQKPGQAPRLLIYYASSRATGIPDRFSGSGSGTDFTLTISRLEPEDFAVYYCQQTGRIPPTFGQGTKVEIK | 6 nM |  | 0.4 nM |
